# Source: patent publication US20190040138A1 (AKESO BIOPHARMA, published 2019)
# Legend:
# [1] = target: T1, PD-1-mIgGFc fusion protein; experiment: competitive ELISA on coated PD-1-mIgGFc; competitor PDL1-mIgG2aFc 0.3 µg/ml; antibody 1.5 µg/ml diluted 1:729; replicate 1
# T1 construct: also called PD-1-mFc; PD-1-mIgGFc antigen
# Experimental: (§1) A 96-well ELISA plate was coated with PD-1-mIgGFc antigen in a concentration of 0.5 μg/ml (50 μl per well) by incubation at 4° C. overnight.
# (§2) The 18A10 H1L1, 18A10 H2L2 and 18A10 H3L3 antibodies each were diluted from 3 μg/ml in series by 1:3, with 7 gradient antibody solutions obtained for each antibody. The 7 gradient antibody solutions for each antibody and the blank PBS control (50 μl per well) were respectively added into the blocked 96-well ELISA plate for incubation at room temperature for 10 minutes.
# (§3) After the 96-well ELISA plate was washed with the PBST buffer for three times and gently patted to dryness, goat anti-mouse IgG-HRP (H+L) as a secondary antibody in 1:5000 dilution (50 μl per well) was added for incubation at 37° C. for 1 hour.
# [2] = target: T1, PD-1-mIgGFc fusion protein; experiment: competitive ELISA on coated PD-1-mIgGFc; competitor PDL1-mIgG2aFc 0.3 µg/ml; antibody 1.5 µg/ml diluted 1:27; replicate 2
# Experimental: as §1, §2
# (§4) The absorbance of solution in each well was measured with the microplate reader under a wavelength of 450 nm.
# [3] = target: T1, PD-1-mIgGFc fusion protein; experiment: competitive ELISA on coated PD-1-mIgGFc; competitor PDL1-mIgG2aFc 0.3 µg/ml; antibody 1.5 µg/ml diluted 1:81; replicate 1
# Experimental: as §1, §2, §4
# [4] = target: T1, PD-1-mIgGFc fusion protein; experiment: competitive ELISA on coated PD-1-mIgGFc; competitor PDL1-mIgG2aFc 0.3 µg/ml; antibody 1.5 µg/ml diluted 1:3; replicate 1
# Experimental: as §1, §2, §3
# [5] = target: T1, PD-1-mIgGFc fusion protein; experiment: ELISA on coated PD-1-mFc; antibody 1 µg/ml diluted 1:243; replicate 1
# Experimental: (§5) An ELISA plate was coated with PD-1-mFc antigen in a concentration of 0.5 μg/ml (50 μl per well) by incubation at 4° C. overnight.
# (§6) After the ELISA plate was washed with the PBST buffer for three times and gently patted to dryness again, TMB as a developer in 50 μl per well was added for incubation at room temperature for 5 to 10 minutes.
# as §4
# [6] = target: T1, PD-1-mIgGFc fusion protein; experiment: ELISA on coated PD-1-mFc; antibody 1 µg/ml diluted 1:243; replicate 2
# Experimental: as §5
# The ELISA plate coated with the PD-1-mFc antigen was blocked with 1% BSA in the PBS buffer at 37° C. for 2 hours, and washed with 1×PBST buffer containing 1% Tween-20 for three times, with gently patting to dryness.
# as §4
# [7] = target: T1, PD-1-mIgGFc fusion protein; experiment: ELISA on coated PD-1-mFc; antibody 1 µg/ml; replicate 1
# Experimental: as §5, §6, §4
# [8] = target: T2, PD-1 antigen stably expressed on the surface of BB007 cells (UniProt Q15116 25-288, limits assumed); experiment: flow cytometry on BB007 cells; antibody 20 nM
# T2 construct: whole, on cells; also called target protein PD-1 on the surface of the BB007 cell
# Experimental: (§7) The binding efficiencies of H1L1, H2L2 and H3L3 antibodies to PD-1 antigen stably expressed on the surface of cells (named as BB007 cells) were determined by flow cytometry. The BB007 cells were obtained by routine trypsin digestion, and then washed with PBS buffer once, followed by dividing into several tubes, with 2×10⁵ cells per tube. After dilution into concentrations of 20 nM, 10 nM, 5 nM, 1 nM, 0.1 nM and 0 nM with the PBS buffer containing 1% BSA for each of the H1L1, H2L2 and H3L3 antibodies, individual antibodies in a volume of 100 μl were added into individual tubes and incubated on ice for 1 hour. After the mixture was washed with the PBS buffer once, 100 μl FITC-Goat-Anti-Human IgG (in 1:500 dilution) was added for each tube and incubated on ice for 1 hour, followed by addition of 300 μl the PBS buffer for detecting fluorescence signal with a FITC channel on the flow cytometer.
# [9] = target: T1, PD-1-mIgGFc fusion protein; experiment: competitive ELISA on coated PD-1-mIgGFc; competitor PDL1-mIgG2aFc 0.3 µg/ml; antibody 1.5 µg/ml diluted 1:9; replicate 2
# Experimental: as §1
# […] The 7 gradient antibody solutions for each antibody and the blank PBS control (50 μl per well) were respectively added into the blocked 96-well ELISA plate for incubation at room temperature for 10 minutes.
# as §3
# [10] = target: T2, PD-1 antigen stably expressed on the …; experiment: flow cytometry on BB007 cells; antibody 5 nM
# Experimental: as §7
# [11] = target: T1, PD-1-mIgGFc fusion protein; experiment: competitive ELISA on coated PD-1-mIgGFc; competitor PDL1-mIgG2aFc
# Experimental: as §1, §2
# [12] = target: T1, PD-1-mIgGFc fusion protein; experiment: ELISA on coated PD-1-mFc; antibody 1 µg/ml diluted 1:3; replicate 1
# Experimental: as §5, §6, §4
# [13] = target: T1, PD-1-mIgGFc fusion protein; experiment: ELISA on coated PD-1-mFc; antibody 1 µg/ml diluted 1:3; replicate 2
# Experimental: as §5, §6, §4
# [14] = target: T1, PD-1-mIgGFc fusion protein; experiment: ELISA on coated PD-1-mFc
# Experimental: as §5, §4
# [15] = target: T1, PD-1-mIgGFc fusion protein; experiment: competitive ELISA on coated PD-1-mIgGFc; competitor PDL1-mIgG2aFc 0.3 µg/ml; antibody 1.5 µg/ml diluted 1:243; replicate 2
# Experimental: as §1, §2, §3
# [16] = target: T2, PD-1 antigen stably expressed on the …; experiment: flow cytometry on BB007 cells; antibody 1 nM
# Experimental: as §7
# [17] = target: T1, PD-1-mIgGFc fusion protein; experiment: ELISA on coated PD-1-mFc; antibody 1 µg/ml diluted 1:81; replicate 2
# Experimental: as §5, §6, §4
# [18] = target: T1, PD-1-mIgGFc fusion protein; experiment: competitive ELISA on coated PD-1-mIgGFc; competitor PDL1-mIgG2aFc 0.3 µg/ml; antibody 1.5 µg/ml diluted 1:243; replicate 1
# Experimental: as §1, §2, §3
# [19] = target: T1, PD-1-mIgGFc fusion protein; experiment: competitive ELISA on coated PD-1-mIgGFc; competitor PDL1-mIgG2aFc 0.3 µg/ml; antibody 1.5 µg/ml; replicate 2
# Experimental: as §1, §2, §4
# T2 sequence (Q15116 25-288 limits assumed): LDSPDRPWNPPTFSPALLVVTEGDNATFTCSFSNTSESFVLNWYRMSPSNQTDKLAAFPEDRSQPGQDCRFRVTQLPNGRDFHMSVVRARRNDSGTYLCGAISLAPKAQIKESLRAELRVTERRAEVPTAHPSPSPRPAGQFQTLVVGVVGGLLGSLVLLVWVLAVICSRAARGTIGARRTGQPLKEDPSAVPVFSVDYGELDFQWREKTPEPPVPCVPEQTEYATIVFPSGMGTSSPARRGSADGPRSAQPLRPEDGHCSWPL
# T1 sequence (chain, as listed by the source limits assumed): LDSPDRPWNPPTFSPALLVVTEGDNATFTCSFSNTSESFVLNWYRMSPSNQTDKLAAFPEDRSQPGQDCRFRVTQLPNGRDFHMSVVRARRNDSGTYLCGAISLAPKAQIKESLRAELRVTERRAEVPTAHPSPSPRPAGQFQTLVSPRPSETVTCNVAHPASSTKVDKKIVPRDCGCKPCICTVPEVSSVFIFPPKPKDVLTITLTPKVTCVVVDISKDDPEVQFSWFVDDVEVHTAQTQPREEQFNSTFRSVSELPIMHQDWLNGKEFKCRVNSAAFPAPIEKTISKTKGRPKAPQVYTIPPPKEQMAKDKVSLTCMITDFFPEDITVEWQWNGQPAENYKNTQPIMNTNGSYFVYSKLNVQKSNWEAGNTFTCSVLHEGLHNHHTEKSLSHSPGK
Binder,absorbance at 450 nm (competition) [1],absorbance at 450 nm (competition) [2],absorbance at 450 nm (competition) [3],absorbance at 450 nm (competition) [4],absorbance at 450 nm [5],absorbance at 450 nm [6],absorbance at 450 nm [7],fluorescence intensity [8],absorbance at 450 nm (competition) [9],fluorescence intensity [10],EC50 [11] [nM],absorbance at 450 nm [12],absorbance at 450 nm [13],EC50 [14] [nM],absorbance at 450 nm (competition) [15],fluorescence intensity [16],absorbance at 450 nm [17],absorbance at 450 nm (competition) [18],absorbance at 450 nm (competition) [19]
"humanized antibody 18A10 H2L2 (antibody, V domains shown, also called H2L2 antibody) VH: EVQLVQSGGGLVQPGGSLKLSCAASGFTFSSYGMSWVRQAPGKGLDWVATISGGGRDTYYPDSVKGRFTISRDNSKNNLYLQMNSLRAEDTALYYCARQKGEAWFAYWGQGTLVTVSS VL: not shown",1.2,0.903,1.09,0.097,0.545,0.475,2.36,329,0.506,321,0.838,2.13,2.36,0.111,1.21,92.5,1.14,1.16,0.102
"humanized antibody 18A10 H3L3 (antibody, V domains shown, also called H3L3 antibody) VH: EVQLVQSGGGLVQPGGSLKLSCAASGFTFSSYGMSWVRQAPGKGLDWVATISGGGRDTYYPDSVKGRFTISRDNSKNTLYLQMNSLRAEDTAVYYCARQKGEAWFAYWGQGTLVTVSS VL: DIVLTQSPASLAVSPGQRATITCRASESVDNYGISFMNWYQQKPGQPPKLLIYAASNKATGVPARFSGSGSGTDFTLNINPMEANDTAVYFCQQSKEVPWTFGGGTKLEIK",1.28,0.986,1.09,0.103,0.432,0.377,2.14,367,0.678,343,1.19,2.29,2.09,0.144,1.21,110,0.809,1.2,0.102
"humanized antibody 18A10 H1L1 (antibody, V domains shown, also called H1L1 antibody) VH: EVQLVQSGGGLVQPGGSLKLSCAASGFTFSSYGMSWVRQTPEKGLDWVATISGGGRDTYYPDSVKGRFTISRDNSKNNLYLQMNSLRAEDTALYYCARQKGEAWFAYWGQGTLVTVSS VL: not shown",1.35,1.04,1.29,0.123,0.45,0.431,2.47,358,0.586,252,0.992,2.35,2.34,0.156,1.21,64.4,0.834,1.26,0.107
